Experiment [1] deals with peptides 11 and 23 (human). Description: pairing sandwich ELISA, antibody coated as capture, target titrated. In general terms: ELISA stands for enzyme-linked immunosorbent assay.
For experiment [2], the target named is peptides 11 and 23 (human). As to the kind of experiment: pairing sandwich ELISA, biotinylated antibody as detector, target titrated.

Drawing on patent US20260043816A1, this text covers EC50 for 1 molecule.

A word on the EC50: it is the concentration that produces a half-maximal response. A higher EC50 goes with a less potent agent.

B1: ACI-8070-942.30D12-Ab1 (antibody, V domains shown)
VH: DVQLVESGGGLVQPGGSRKLSCEASGFTFSSIGMHWVRQAPEKGLEWVAYITSGSSTIYYADTVKGRFTISRDNPKNTLFLQMTSLRSEDTAIYYCAGSGPGTDYWGQGTTLTVSS
VL: DIKMTQSPSSMYASLGERVTITCKASQDINSYLSWFQQKPGKSPKTLIYRANRLVDGVPSRFSGSGSGQDYSLTISSLEYEDMGIYYCLQYDEFPLTFGAGTKLELK
On to B1, for which the EC50 was determined as 0.904 nM in experiment [1] and 0.056 nM in experiment [2].
